Experimental data published in the Immune Epitope Database (IEDB).

How the values were obtained:
[1] = target: HLA-B*58:01; experiment: IEDB peptide-MHC binding, purified MHC/competitive/fluorescence; ≥ and ≤ were set here for values at or beyond the usual limits of such assays; conditions: source organism: Homo sapiens
[2] = target: HLA-B*15:17; experiment: IEDB peptide-MHC binding, purified MHC/direct/fluorescence; filed as Kd, often an IC50 or EC50 that approximates it; ≥ and ≤ were set here for values at or beyond the usual limits of such assays; conditions: source organism: Marburg virus - Musoke, Kenya, 1980
[3] = target: HLA-A*31:01; experiment: as above; conditions: source organism: Marburg virus - Musoke, Kenya, 1980
[4] = target: HLA-A*30:01; experiment: as above; conditions: source organism: Ravn virus - Ravn, Kenya, 1987
[5] = target: HLA-B*38:01; experiment: as above; conditions: source organism: Ravn virus - Ravn, Kenya, 1987
[6] = target: HLA-B*48:01; experiment: as above; conditions: source organism: Marburg virus - Musoke, Kenya, 1980
[7] = target: HLA-B*15:01; experiment: as above
[8] = target: HLA-A*69:01; experiment: as above
[9] = target: HLA-A*26:01; experiment: as above; conditions: source organism: Ravn virus - Ravn, Kenya, 1987
[10] = target: HLA-B*58:01; experiment: as above; conditions: source organism: Marburg virus - Musoke, Kenya, 1980
[11] = target: HLA-B*18:01; experiment: as above; conditions: source organism: Marburg virus - Musoke, Kenya, 1980
[12] = target: HLA-B*07:02; experiment: as above
[13] = target: HLA-B*27:05; experiment: as above; conditions: source organism: Marburg virus - Musoke, Kenya, 1980
[14] = target: HLA-A*03:01; experiment: as above; conditions: source organism: Marburg virus - Musoke, Kenya, 1980
[15] = target: HLA-B*57:01; experiment: as above; conditions: source organism: Marburg virus - Musoke, Kenya, 1980
[16] = target: HLA-B*46:01; experiment: as above; conditions: source organism: Marburg virus - Musoke, Kenya, 1980
[17] = target: HLA-B*40:01; experiment: as above
[18] = target: HLA-A*01:01; experiment: as above; conditions: source organism: Marburg virus - Musoke, Kenya, 1980
[19] = target: HLA-A*11:01; experiment: IEDB peptide-MHC binding, purified MHC/competitive/fluorescence; filed as Kd, often an IC50 or EC50 that approximates it; ≥ and ≤ were set here for values at or beyond the usual limits of such assays; conditions: source organism: Orthomarburgvirus marburgense
[20] = target: HLA-B*39:01; experiment: as above; conditions: source organism: Orthomarburgvirus marburgense
[21] = target: HLA-B*51:01; experiment: as above
[22] = target: HLA-A*02:01; experiment: as above; conditions: source organism: Orthomarburgvirus marburgense
[23] = target: HLA-A*02:01; experiment: IEDB peptide-MHC binding, purified MHC/direct/fluorescence; filed as Kd, often an IC50 or EC50 that approximates it; ≥ and ≤ were set here for values at or beyond the usual limits of such assays; conditions: source organism: Homo sapiens
[24] = target: HLA-A*02:50; experiment: IEDB peptide-MHC binding, purified MHC/competitive/fluorescence; filed as Kd, often an IC50 or EC50 that approximates it; ≥ and ≤ were set here for values at or beyond the usual limits of such assays; conditions: source organism: Homo sapiens
[25] = target: HLA-A*25:01; experiment: as above; conditions: source organism: Homo sapiens
[26] = target: HLA-A*30:01; experiment: as above; conditions: source organism: Homo sapiens
[27] = target: HLA-A*29:02; experiment: as above; conditions: source organism: Homo sapiens
[28] = target: HLA-A*24:03; experiment: as above; conditions: source organism: Homo sapiens
[29] = target: HLA-B*44:02; experiment: as above; conditions: source organism: Homo sapiens
[30] = target: HLA-B*57:01; experiment: as above; conditions: source organism: Homo sapiens
[31] = target: HLA-B*08:01; experiment: IEDB peptide-MHC binding, purified MHC/direct/fluorescence; filed as Kd, often an IC50 or EC50 that approximates it; ≥ and ≤ were set here for values at or beyond the usual limits of such assays; conditions: source organism: Burkholderia mallei ATCC 23344
[32] = target: HLA-C*05:01; experiment: as above; conditions: source organism: Burkholderia mallei SAVP1
[33] = target: HLA-C*15:02; experiment: as above; conditions: source organism: Burkholderia mallei SAVP1
[34] = target: HLA-C*06:02; experiment: as above; conditions: source organism: Burkholderia mallei SAVP1
[35] = target: HLA-B*08:02; experiment: as above; conditions: source organism: Burkholderia mallei ATCC 23344
[36] = target: HLA-C*14:02; experiment: as above; conditions: source organism: Burkholderia mallei SAVP1
[37] = target: HLA-C*07:02; experiment: as above; conditions: source organism: Burkholderia mallei SAVP1
[38] = target: HLA-B*27:20; experiment: IEDB peptide-MHC binding, purified MHC/competitive/fluorescence; filed as Kd, often an IC50 or EC50 that approximates it; ≥ and ≤ were set here for values at or beyond the usual limits of such assays; conditions: source organism: Burkholderia mallei SAVP1
[39] = target: HLA-B*83:01; experiment: as above; conditions: source organism: Burkholderia mallei SAVP1
[40] = target: HLA-B*15:42; experiment: as above; conditions: source organism: Burkholderia mallei SAVP1
[41] = target: HLA-B*45:06; experiment: as above; conditions: source organism: Burkholderia mallei SAVP1
[42] = target: HLA-B*15:02; experiment: as above; conditions: source organism: Toxoplasma gondii RH
[43] = target: HLA-B*53:01; experiment: IEDB peptide-MHC binding, purified MHC/competitive/fluorescence; ≥ and ≤ were set here for values at or beyond the usual limits of such assays; conditions: source organism: Ornithorhynchus anatinus
[44] = source organism: Marburg virus - Musoke, Kenya, 1980

Sequence: KSLTTTMQF
- IC50 [1]: 0.136 µM

Sequence: VPAWLPLGI
- Kd [2]: 0.288 µM
- Kd [3]: ≥ 20 µM
- Kd [4]: ≥ 20 µM
- Kd [5]: ≥ 20 µM
- Kd [6]: ≥ 20 µM
- Kd [7, 44]: ≥ 20 µM
- Kd [8, 44]: 0.0111 µM
- Kd [9]: ≥ 20 µM
- Kd [10]: ≥ 20 µM
- Kd [11]: 5.81 µM
- Kd [12, 44]: 0.732 µM
- Kd [13]: ≥ 20 µM
- Kd [14]: ≥ 20 µM
- Kd [15]: ≥ 20 µM
- Kd [16]: ≥ 20 µM
- Kd [17, 44]: ≥ 20 µM
- Kd [18]: ≥ 20 µM
- Kd [19]: ≥ 20 µM
- Kd [20]: 2.68 µM
- Kd ([21]; source organism: Orthomarburgvirus marburgense): 0.116 µM
- Kd [22]: 1.05 µM

Sequence: EVIPYTPAM
- Kd ([7]; source organism: Homo sapiens): 4.76 µM
- Kd ([8]; source organism: Homo sapiens): 0.00717 µM
- Kd ([12]; source organism: Homo sapiens): 4.71 µM
- Kd ([17]; source organism: Homo sapiens): 13.2 µM
- Kd [23]: 5.7 µM
- Kd [24]: ≥ 20 µM
- Kd [25]: 0.0108 µM
- Kd [26]: ≥ 20 µM
- Kd [27]: ≥ 20 µM
- Kd [28]: ≥ 20 µM
- Kd [29]: ≥ 20 µM
- Kd [30]: ≥ 20 µM
- Kd ([21]; source organism: Homo sapiens): ≥ 20 µM

Sequence: YARRYFYPL
- Kd [31]: 0.002 µM
- Kd [32]: ≥ 20 µM
- Kd [33]: 0.011 µM
- Kd [34]: ≥ 20 µM
- Kd [35]: 0.043 µM
- Kd [36]: 0.696 µM
- Kd [37]: 0.362 µM
- Kd [38]: 0.0244 µM
- Kd [39]: ≥ 5 µM
- Kd [40]: ≥ 5 µM
- Kd [41]: ≥ 5 µM

Sequence: SLSSPDSAY
- Kd [42]: 0.0251 µM

Sequence: YSLEYFQF
- IC50 [43]: 4.79 µM
